pKi: −log10 of the molar value.
Target: papain (UniProt P00784)
Test: enzyme inhibition assay (Dixon plot); various amounts of recombinant protein with 10 ug papain (1.24 uM final in 350 ul), 0.1 M sodium phosphate pH 6.0, 1 mM EDTA, 2 mM beta-mercaptoethanol, 37°C, substrate BANA; Ki from plots of 1/v versus [I]

UniProt P00784, sequence (P00784 134-345): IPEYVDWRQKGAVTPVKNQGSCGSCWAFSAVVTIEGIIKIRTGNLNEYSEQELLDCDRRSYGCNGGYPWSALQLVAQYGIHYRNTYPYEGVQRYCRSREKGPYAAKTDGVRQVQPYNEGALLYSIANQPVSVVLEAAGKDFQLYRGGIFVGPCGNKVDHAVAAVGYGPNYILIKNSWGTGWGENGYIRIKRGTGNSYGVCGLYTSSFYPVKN

Row | Substance | pKi
1 | SiCYS, sesame seed group II phytocystatin (non-fusion recombinant) (natural protein) | 7.72
2 | SiCYS-N, N-terminal domain of SiCYS (non-fusion recombinant) (domain or fragment) | 7.10

Source: paper PMC5432954
